Experimental data taken from patent publication US20180022819A1 (APTEVO RESEARCH AND DEVELOPMENT, published 2018).

Target: prostate-specific membrane antigen (PSMA) (human, UniProt Q04609 1-750)
Assay: cell-based or functional assay

prostate-specific membrane antigen (PSMA), sequence (Q04609 whole entry): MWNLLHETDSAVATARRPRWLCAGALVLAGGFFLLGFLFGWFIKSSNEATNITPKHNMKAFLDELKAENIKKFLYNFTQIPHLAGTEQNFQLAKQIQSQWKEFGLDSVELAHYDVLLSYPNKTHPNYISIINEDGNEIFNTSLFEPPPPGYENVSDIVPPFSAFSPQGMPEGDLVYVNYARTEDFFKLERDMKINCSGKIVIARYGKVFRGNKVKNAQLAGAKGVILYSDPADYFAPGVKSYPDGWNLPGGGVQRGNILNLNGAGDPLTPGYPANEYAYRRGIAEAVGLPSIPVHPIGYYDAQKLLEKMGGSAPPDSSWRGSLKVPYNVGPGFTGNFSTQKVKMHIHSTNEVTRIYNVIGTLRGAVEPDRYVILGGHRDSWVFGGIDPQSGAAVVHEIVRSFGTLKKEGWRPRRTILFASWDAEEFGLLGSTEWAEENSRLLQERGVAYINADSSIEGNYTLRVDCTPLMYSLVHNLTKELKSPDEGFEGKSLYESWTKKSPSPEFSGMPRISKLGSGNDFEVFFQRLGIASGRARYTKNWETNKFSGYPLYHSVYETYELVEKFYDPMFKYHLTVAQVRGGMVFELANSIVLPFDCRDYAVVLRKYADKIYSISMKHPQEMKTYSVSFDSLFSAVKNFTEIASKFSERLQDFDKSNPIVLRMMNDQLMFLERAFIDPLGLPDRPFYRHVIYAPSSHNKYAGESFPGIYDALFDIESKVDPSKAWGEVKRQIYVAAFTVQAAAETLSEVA

B1: humanized TSC249 (huVL-VH#2 107-1A4 scFv-Fc-DRA222 scFv) (bispecific antibody)
chain: DIQMTQSPSAMSASVGDRVTITCRASKSISKYLAWFQQKPGKVPKLRIHSGSTLQSGVPSRFSGSGSGTEFTLTISSLQPEDFATYYCQQHIEYPWTFGQGTKVEIKRGGGGSGGGGSGGGGSQVQLVQSGAEVKKPGASVKVSCKASGYTFTDYYMHWVRQAPGQGLEWMGYFNPYNDYTRYAQKFQGRVTMTRDTSISTAYMELSSLRSDDTAVYYCARSDGYYDAMDYWGQGTTVTVSSSEPKSSDKTHTCPPCPAPEAAGAPSVFLFPPKPKDTLMISRTPEVTCVVVDVSHEDPEVKFNWYVDGVEVHNAKTKPREEQYNSTYRVVSVLTVLHQDWLNGKAYACAVSNKALPAPIEKTISKAKGQPREPQVYTLPPSRDELTKNQVSLTCLVKGFYPSDIAVEWESNGQPENNYKTTPPVLDSDGSFFLYSKLTVDKSRWQQGNVFSCSVMHEALHNHYTQKSLSLSPGQRHNNSSLNTGTQMAGHSPNSQVQLVESGGGVVQPGRSLRLSCKASGYTFTRSTMHWVRQAPGQGLEWIGYINPSSAYTNYNQKFKDRFTISADKSKSTAFLQMDSLRPEDTGVYFCARPQVHYDYNGFPYWGQGTPVTVSSGGGGSGGGGSGGGGSAQDIQMTQSPSSLSASVGDRVTMTCSASSSVSYMNWYQQKPGKAPKRWIYDSSKLASGVPARFSGSGSGTDYTLTISSLQPEDFATYYCQQWSRNPPTFGGGTKLQITSSS
EC50 of % live cells, GFP-LNCaP growth inhibition assay, 4 days with primary human T-cells (3:1): 15 pM
EC50 of % specific lysis, 51Cr release assay, 4 hours, untreated 22Rv1 target cells with donor T-cells (5:1): 0.8 pM
